This data set has as its target RNAP-SigA holoenzyme (Mycobacterium tuberculosis, UniProt P9WGZ1;P9WGY9;P9WGY7;P9WGI1 1-347;1-1178;1-1316;1-528). Nature of the data set: EMSA; 100-200 nM RNAP, heparin. The conditions noted are these: protein: recombinant; chain copies: 2;1;1;1; blunt. In general terms: Mobility shift assays separate free from complexed probe on a gel.

RNAP-SigA holoenzyme, sequence (P9WGZ1 whole entry, chain 1 of 4): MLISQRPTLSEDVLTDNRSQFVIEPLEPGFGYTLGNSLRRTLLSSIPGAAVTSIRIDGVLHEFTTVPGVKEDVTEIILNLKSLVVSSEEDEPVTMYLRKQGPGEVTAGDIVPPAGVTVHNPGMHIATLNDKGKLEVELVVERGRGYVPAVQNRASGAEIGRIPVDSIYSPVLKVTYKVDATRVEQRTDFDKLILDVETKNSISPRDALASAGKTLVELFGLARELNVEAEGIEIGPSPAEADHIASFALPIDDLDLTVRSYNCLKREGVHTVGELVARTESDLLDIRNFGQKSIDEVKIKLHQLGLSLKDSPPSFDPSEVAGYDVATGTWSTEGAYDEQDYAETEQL
RNAP-SigA holoenzyme, sequence (P9WGY9 whole entry, chain 2 of 4): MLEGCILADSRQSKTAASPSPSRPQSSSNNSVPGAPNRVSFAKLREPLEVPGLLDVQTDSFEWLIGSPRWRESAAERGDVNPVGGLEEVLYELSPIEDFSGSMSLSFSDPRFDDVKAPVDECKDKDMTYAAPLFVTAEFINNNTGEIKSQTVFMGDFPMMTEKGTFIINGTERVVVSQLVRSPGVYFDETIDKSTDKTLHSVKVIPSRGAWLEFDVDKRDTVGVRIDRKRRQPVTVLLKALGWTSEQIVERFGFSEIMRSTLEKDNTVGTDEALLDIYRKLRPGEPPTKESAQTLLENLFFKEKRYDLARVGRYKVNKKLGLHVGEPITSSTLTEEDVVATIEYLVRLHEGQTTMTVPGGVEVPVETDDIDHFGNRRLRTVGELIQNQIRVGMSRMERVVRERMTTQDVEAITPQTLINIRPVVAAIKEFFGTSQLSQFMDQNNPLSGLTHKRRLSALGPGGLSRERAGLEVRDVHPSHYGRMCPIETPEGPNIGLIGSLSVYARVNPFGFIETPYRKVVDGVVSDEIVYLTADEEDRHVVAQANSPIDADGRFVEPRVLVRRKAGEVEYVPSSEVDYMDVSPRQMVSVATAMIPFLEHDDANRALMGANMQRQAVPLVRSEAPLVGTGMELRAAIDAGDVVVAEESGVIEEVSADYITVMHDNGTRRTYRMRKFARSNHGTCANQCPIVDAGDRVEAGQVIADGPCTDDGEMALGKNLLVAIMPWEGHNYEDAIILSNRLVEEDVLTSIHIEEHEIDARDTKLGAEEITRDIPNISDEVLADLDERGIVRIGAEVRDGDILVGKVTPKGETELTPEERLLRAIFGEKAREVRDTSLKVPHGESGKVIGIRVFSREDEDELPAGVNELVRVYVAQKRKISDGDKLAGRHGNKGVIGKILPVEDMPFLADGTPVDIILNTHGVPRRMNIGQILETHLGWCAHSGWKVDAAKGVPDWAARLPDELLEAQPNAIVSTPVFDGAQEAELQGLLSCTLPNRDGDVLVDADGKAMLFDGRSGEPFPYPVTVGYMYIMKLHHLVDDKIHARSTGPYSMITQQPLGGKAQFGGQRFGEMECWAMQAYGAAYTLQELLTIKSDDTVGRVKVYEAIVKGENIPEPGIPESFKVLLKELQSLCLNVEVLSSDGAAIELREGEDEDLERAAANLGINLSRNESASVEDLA
RNAP-SigA holoenzyme, sequence (P9WGY7 whole entry, chain 3 of 4): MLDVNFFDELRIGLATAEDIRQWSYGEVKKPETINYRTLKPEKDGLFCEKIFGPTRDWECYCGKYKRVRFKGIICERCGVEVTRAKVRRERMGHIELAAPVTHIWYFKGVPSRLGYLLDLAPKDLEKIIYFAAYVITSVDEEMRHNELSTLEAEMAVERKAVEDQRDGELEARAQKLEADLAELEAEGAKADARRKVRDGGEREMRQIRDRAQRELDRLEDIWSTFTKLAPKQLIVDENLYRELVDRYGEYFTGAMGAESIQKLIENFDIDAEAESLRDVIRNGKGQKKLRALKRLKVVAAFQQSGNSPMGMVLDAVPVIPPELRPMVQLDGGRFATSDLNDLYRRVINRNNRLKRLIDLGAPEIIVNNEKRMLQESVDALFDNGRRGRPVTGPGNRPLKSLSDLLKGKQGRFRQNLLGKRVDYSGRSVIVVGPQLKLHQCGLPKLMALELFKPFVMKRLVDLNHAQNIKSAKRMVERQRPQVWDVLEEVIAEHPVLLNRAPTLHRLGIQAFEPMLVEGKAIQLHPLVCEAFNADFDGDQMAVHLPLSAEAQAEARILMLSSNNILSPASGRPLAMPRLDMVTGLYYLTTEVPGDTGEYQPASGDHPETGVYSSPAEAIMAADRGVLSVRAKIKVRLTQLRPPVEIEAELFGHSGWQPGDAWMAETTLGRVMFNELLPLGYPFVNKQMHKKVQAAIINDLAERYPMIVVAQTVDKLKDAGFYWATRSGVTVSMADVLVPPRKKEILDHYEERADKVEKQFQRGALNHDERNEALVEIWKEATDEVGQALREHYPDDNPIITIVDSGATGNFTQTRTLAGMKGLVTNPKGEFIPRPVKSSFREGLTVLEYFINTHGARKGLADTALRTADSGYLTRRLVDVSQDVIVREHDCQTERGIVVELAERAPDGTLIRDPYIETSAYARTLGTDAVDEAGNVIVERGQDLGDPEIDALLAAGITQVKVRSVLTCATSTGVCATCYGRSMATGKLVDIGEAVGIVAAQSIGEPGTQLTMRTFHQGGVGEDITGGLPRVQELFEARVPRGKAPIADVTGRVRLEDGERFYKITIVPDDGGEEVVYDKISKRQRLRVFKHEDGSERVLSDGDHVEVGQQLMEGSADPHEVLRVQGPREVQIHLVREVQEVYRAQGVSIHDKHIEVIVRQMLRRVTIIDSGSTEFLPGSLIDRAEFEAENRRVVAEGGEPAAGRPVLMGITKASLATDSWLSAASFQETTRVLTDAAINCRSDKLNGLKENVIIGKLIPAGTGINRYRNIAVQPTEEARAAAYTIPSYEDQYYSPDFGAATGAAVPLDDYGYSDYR
RNAP-SigA holoenzyme, sequence (P9WGI1 whole entry, chain 4 of 4): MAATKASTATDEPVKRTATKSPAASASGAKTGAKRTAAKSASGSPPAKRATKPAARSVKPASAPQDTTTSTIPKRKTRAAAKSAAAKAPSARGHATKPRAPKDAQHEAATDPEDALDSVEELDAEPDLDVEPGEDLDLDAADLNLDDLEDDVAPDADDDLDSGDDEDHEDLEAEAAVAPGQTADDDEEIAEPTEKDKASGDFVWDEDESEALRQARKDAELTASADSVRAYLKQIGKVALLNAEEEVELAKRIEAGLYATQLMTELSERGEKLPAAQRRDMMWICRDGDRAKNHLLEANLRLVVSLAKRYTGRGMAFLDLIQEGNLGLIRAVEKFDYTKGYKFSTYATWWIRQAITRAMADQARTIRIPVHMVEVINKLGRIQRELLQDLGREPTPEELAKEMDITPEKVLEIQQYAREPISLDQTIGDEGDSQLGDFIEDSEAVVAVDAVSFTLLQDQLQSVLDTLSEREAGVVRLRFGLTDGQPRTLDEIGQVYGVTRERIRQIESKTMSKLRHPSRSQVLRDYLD

B1: rrnAP3 promoter (dsDNA)
DNA 1: CTATGGATGACCGAACCTGGTCTTGACTCCATTGCCGGATTTGTATTAGACTGGCAGGGTCGCCCCGAAGCGGGCGGAAACAAGCAAGCGTGTTGTTTGAGAACTC
DNA 2: GAGTTCTCAAACAACACGCTTGCTTGTTTCCGCCCGCTTCGGGGCGACCCTGCCAGTCTAATACAAATCCGGCAATGGAGTCAAGACCAGGTTCGGTCATCCATAG
Consider B1, for which the binding result is on record as “binds”.
